test: yeast display, Sf9 membrane polyspecificity reagent, FACS + sequencing; frameworks hold sequencing errors
Summary of the method: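 Polyreactivity labels are assigned by the sorting gate from which each nanobody was recovered. The gates were low and high (top ~1%), set on anti-HA fluorescence for expression and streptavidin fluorescence for reagent binding. Before sorting, galactose-induced (36–48 hours) yeast display cells were stained for 1 hour at 4 °C with 10% biotinylated, detergent-solubilized Sf9 membrane reagent.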

| Sequence | polyreactivity (PSR sort gate) |
| --- | --- |
| QVLLVESGGGLVQAGGSLRLSCAASGSTFNYNAMGWYRQAPGKERELVAVITSGGRTNYADSVKGRFTISRDNAKNTVYLQMNSLKPEDTAVYSCNAEHVSYHFNLKYSGESWGQGTQVTVSS | low polyreactivity |
| QVQLVESGGGLVQAGGSLRLSCAASGRIFRQKAMGWYRQAPGKERELVASISSGGNTYYADSVKGRFTISRDNAKNNVYLQMNSLKPEDTAVYYCAAAKQRYYRWWTTPGYDYWGQGTQVTVSS | low polyreactivity |
| QVQLVESGGGLVQAGGSLRLSCAASGRTFYSYVMGWYRQAPGKEREVVAAIPRSGGSTNYADSVKGRFTISRDNAKNTVYFQMHSRKPEDTAVYYCASRAGRTLRTHYDYWGQGTQGTVSS | high polyreactivity |
| QVQLVESGGGLVQAGGSLRLSCAASGNIFYYYAMGWYRQAPGKERELVAAISWRGGITYYANSVKGRFTISRDNAKNTVYLQMNSLKPEDNAVYYCNAVQPGYPNGFAVRYNYWGQGTQVTVSS | low polyreactivity |
| QVQLVESGGGLVQAGGRLRLSCAASGFIFPVYAMGWYRQAPGKERELVASITTGGSTNYADSVKGRFTISRDNAKNTVYLQMNSLKPEDTAVYYCNKDTPASLANQYNYWGQGTQVTVSS | low polyreactivity |
| QVQLVESGGGLVQAGGSLRLSCAASGSIFPRNAMGWYRQAPGKERELVASINSGGSTKYADSVKGRFTISRDNAKNTLYLQMNSLKPEDTAVYYCAAVRPWWRNKPQWPRYDYCGQGTQVTVSS | low polyreactivity |
| QVQLLESGGGLVHAGGSLRLSCAASGRIFLGNAMGWYIQAPRKERELVASISRGGGTTYYADSVKGRITISRDNAKNTVYLQMNRLKPEDTAVYYCAARVYYVVQHGKYVYWGQGTQVTVSS | high polyreactivity |
| QVQLVESGGGLVQAGGSLRLSCAASGSISAIYTMGWYRQATGKERELVAAITGSAGSTYADSVKGRFTISRDNAKNTVYLQMNSLKPEDTAVYYCNAQPGDDVKVKLDYWGQGSQVTVSS | low polyreactivity |
| QVQLVESGGGLVQAGGSLRLSCAASGLTFVQNAMGWYRQAPGKERELVAAISSRGGSTYYADSVKGRFTISRDNAKNTVYLQMNSLKPEDTAVYYCNTRSITKYDYWRRGYGYWGQGTQVTVSS | high polyreactivity |
| QVQLVQSGGGLVQAGGSLRLSCAASGSIFGYYAKGWNRQAPGKERQLVAAIDSRGGSTYYADSVKGRFTISRDNEKNTVYLQMNSLKTEDTAVYYCAARLRYPRRGQGDNYRGQGTQVTVSS | low polyreactivity |
| QVQLVESGGGLVQAGGSLRLSCAASGFIFVRNTRGWYRQAPGKERELVAAISSRGGRTYYADSVKGRFTISRDNAKNTVYLQMNSLKPEDTAVYYCAKAHSVNQRYDYWGQGTQVTVSS | high polyreactivity |
| QVQLVESGGGLVQAGGSLRLSCAGSGFTFGKNAMGWYRQAPGKERELVAANSGRGGRTFYADSVKGRFTISRDNAKNTVYLQMNSLKPEDTADYYCAAQRYYDNQYPYEYWGQGTQVTVSS | high polyreactivity |
| QVQLVETGGGLVQAGGSLRLSCAASGLTFRGYAKGWYIQAPGKERELVARITIGSSTNYADSVKGRFTISRDIAKNTVYLQMNSLKQEDSAVYYCAADKPGQFTPSYNKIYDYWGQGTQVTVSS | low polyreactivity |
| QVQLVESGGGLVQAGGSLRLSCAASGSIFPYYAMGWYRQAPGKERELVATITYRGGSTNYADSVKGRFTISRDNAKNTVYLQMNSLKPEDTAVYYCAAYGYVLASPYPYSFVKLGYWGQGTQVTVSS | low polyreactivity |
| QVQLVESGGGLVQAGGSLRLSCAASGRTSKRYAMGWYRQAPGKERELVASIRGGDGSTYYADSVKGRFTISRDNAKNTVYLQMNSLKPEDTAVYYCARASSYGYYYWGQGTQVTVSS | high polyreactivity |
| QVQLVESGGGLVQAGGSLRLSCAASGITFYFNTMGWYRQAPGKVRELVASISGGSSTYYADSVKGRFTISRDNAKNTVYLQMNSLKPEDTAVYYCNAQGALFRGWFDYDYWGQGTQVTVSS | low polyreactivity |
| QVQLVESGGGLVQAGGSLRLSCAASGSIFSLYAMGWYRPAPGKERELVAGISRSGGSTYYADSVKGRFTISRDNAKNTVYLQMNSLKPEDTAVYYCAARVKVRDFKGYYWGQGTQVTVSS | high polyreactivity |
| QVQLVESGGGLVQAGGSLRLSCAASGRTFGGNVMGWYRQAPGKERELVAAITWSGGRTYYADSVKGRFTISRDNAKNTVYLQMNSLKPEDTAVYYCNARNGFTVKKFYYWGQGTQVTVSS | high polyreactivity |
| QVQLVESGGGLVQAGGSLRLSCAASGSTFSQNAMGWYRQAPGKERELVDAITSGGITYYADSVKGRFTISRDNAKNTVYLQMNSLKPEDTAVYYCNADAIVSPYRLWTVTYYYWGQGTQVTVSS | low polyreactivity |
| QVQLVESGGGLVQAGGSLRLSCAASGSTFTWNAMGWYRQAPGKERELVAAISGDGGSTYYADSVKGRFTISRDNAKNTVYLQMNSLKPEDTAVYYCAASSAHIYSYRYNYWGQGTQVTVSS | low polyreactivity |
| QVQLVESGGGLVHAGGSLRLSCAASGRILGKYANGWYRQAPGKERELVAAINWRGGRTYADSVKGRFTISRDNSKNNVYLQMNSLKPEDTAVYYCAAVWQSPRPGYGYWGQGTQVTVSS | high polyreactivity |
| QVQLVESGGGLVQGGGSLRLSCAASGIIFFNNVMGWYRLAPGKERELVAAITFSGSSTYYADSVKGRFTISRDNAKNTVYLQMNSLKTEDTAVYYCAAYRSGHGIIDYDSWGQGTQVTVSS | low polyreactivity |
| QVQLVESGGGLVQAGGSLRLSCAASGGTFYTNVMGWYREAPGKERELVAAITRSGGSTHYADSVKGRFTISRDNAKNTVYLQMNSLKPEDTAVYYCAVGSPYYDGMDYWGQGTQVTVSS | low polyreactivity |
| QVQLVESGGGLVQAGGSLRLSCAASGRTFVSNAMGWYRQAPGKERELVAVITGIGGNTYYADSVKGRFTISRDNAKTTVYLQMYSLKPEDTAVYYCAADQIYSFYPVYGSWIYSMYYWGQGTQVTVSS | low polyreactivity |
| QVQLVESGGGLVKAGGSLRLSCAASGFTFYLNAMGWSRQAPGKERELVAGISWRGGRTYYADSVKGRFTISRDNAKITVYVQLNSLKPEDTAVYYCAAVTYSFQKTDYYWGQGTQVTVSA | high polyreactivity |
| QVQLVESGGGLVQAGGSLRLSCAASGSTFRYYAMGWYRQAPGKERELVAAISGSGGRTYYADSVKGRFTISRDNAKNTVYLQMNSLKPEYTAVYYCNTRGRSTDYDYWGQGTQVTVSS | high polyreactivity |
| QVQHVESGGGLVQAGGSLRLSCASSGFIFYKYVMGWYRQAPGKERELVAAINWSGGSTYYADSVKGRFTISRDNAKNTVYLQMNSLKPDVTAVYYCAALSQYRYDYWGQGTQVTVSS | high polyreactivity |
| QVQLVESAGGLVQAGVSLRLSCAASGFTSSRNAMGWYRQAPGKERELVATISSGGDTYYADSVKGRFTISRDNAKNTVYLQMNTLKPEDTAVYYCNKDPLYAWGYDYWGQGTQVTVSS | low polyreactivity |
| QVQLVESGGGLVQAGGSLRLSCAASGRIFSVYAMVWYRQAPGKEREFVAAITKGGVGTYYADSVKGRFTISRDNAKNTVYLQMNSLKPEDTAVYYFAARHYYGADRYYSWGQGTQVTVSS | high polyreactivity |
| QVQLVESGGGLVQAGGSLRLTCAASGRTFQYNAMVWYRQAPGKERELVAAISSSGGSTYYADSVKGRFTISRDNAKNTVYLQMNSLKPEDTAVYYCNAYSQSWNFYGDGDYWGQGTQVTVSS | low polyreactivity |

From the nanobody polyreactivity screen of Harvey et al. (2022)
